The test system of one experiment is GhTPL. Kind of experiment: CO-IP experiment with GhTPL. It is filed as binding, cotton. The protocol: Steps of method of CO-IP experiment: Non-denaturing lysate was added to 293T cell culture plate (Pricella, Cat. No.: CL-0005), and the cells were completely lysed at 4° C. The lysate was centrifuged at 12,000 rpm for 10 min and the supernatant was collected. The corresponding antibody was added to the obtained non-denatured protein solution, which was incubated overnight at 4° C. Pierce™ protein A/G magnetic agarose (Thermo Fisher Scientific, Inc.) were washed with lysis buffer, followed by addition pre-treated beads to the cell lysate, and incubation at room temperature for 2 hours. The mixture was centrifuged at 4° C., 2,500 rpm for 5 min with supernatant removed, and the agarose beads were washed 5 times with 1 ml of lysis buffer. An appropriate amount of protein loading buffer was added to the pellet, and the sample was incubated in water bath at 100° C. for 10 min. The band of interest was detected by Western blotting.
GhTPL, sequence (as listed by the source): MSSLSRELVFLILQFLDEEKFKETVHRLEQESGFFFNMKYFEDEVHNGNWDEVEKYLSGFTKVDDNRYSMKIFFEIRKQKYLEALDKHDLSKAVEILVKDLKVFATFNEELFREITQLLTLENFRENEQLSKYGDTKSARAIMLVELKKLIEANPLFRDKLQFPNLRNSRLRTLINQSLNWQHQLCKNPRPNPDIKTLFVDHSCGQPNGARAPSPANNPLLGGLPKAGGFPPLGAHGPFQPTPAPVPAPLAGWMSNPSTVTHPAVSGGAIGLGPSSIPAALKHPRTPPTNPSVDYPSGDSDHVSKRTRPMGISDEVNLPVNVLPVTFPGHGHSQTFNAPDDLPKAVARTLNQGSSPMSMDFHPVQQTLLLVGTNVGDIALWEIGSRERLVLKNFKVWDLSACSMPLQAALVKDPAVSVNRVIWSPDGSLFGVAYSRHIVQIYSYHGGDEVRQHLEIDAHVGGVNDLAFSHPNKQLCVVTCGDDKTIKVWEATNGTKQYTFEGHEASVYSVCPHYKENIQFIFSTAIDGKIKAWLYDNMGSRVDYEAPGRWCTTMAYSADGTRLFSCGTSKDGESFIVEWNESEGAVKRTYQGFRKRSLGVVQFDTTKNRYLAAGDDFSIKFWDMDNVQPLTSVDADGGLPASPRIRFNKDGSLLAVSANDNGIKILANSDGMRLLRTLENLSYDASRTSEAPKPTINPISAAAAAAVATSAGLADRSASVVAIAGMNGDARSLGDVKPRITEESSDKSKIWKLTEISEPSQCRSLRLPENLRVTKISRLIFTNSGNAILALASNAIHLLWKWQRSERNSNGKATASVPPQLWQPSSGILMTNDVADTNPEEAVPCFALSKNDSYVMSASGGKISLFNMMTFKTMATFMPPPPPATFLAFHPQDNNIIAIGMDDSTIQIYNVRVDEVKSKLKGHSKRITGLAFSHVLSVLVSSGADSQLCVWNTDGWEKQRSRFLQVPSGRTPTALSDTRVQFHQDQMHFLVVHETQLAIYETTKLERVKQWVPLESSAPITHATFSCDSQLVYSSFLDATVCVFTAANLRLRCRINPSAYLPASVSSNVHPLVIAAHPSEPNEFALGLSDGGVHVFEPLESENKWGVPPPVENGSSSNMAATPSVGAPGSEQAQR

A further experiment has as its system MCF7 breast cancer cells. Kind of experiment: Cell cycle detection (PI DNA content), MCF7. It is filed as cell-based, human. Particulars: 0.691 μM, 24 h, vs PBS. As to the method:
Cell cycle detection: cells were moderately digested by trypsin, and collected by centrifugation with supernatant removed, and then cells were washed with PBS, and collected by centrifugation at 1,500 rpm for 5 minutes to prepare a single-cell suspension (at a concentration of 1×10^6/ml). 1 ml of single-cell suspension was then taken and centrifuged with the supernatant discarded, and then 500 μl of 70% pre-cooled ethanol were added to fix the cells overnight at 4° C. The next day, cells were collected by centrifugation, resuspended with 1 ml of PBS and centrifuged, and then 100 μl of RNase A solution were added to the cell pellet, followed by placement in water bath at 37° C. for 30 min, and then 400 μl of PI staining solution was added and mixed well, followed by incubation at 4° C. in dark for 30 min and detection on the instrument to record under red fluorescence at the excitation wavelength of 488 nm. Specifically, a DNA content detection kit (cell cycle) (Solarbio, Cat. No.: CA1510) was used.

For experiment [1], the target named is T1, c-Myc (Homo sapiens, UniProt P01106). Kind of experiment: GST Pull down experiment with c-Myc. It is filed as binding. The arrangement: with the full length of c-Myc and NMYC, respectively; expressed in transfected cells; host or cells: yeast Y2HGold. As to conditions: GST-c-Myc and His-GhJAZ1 fusion proteins. The text has this: Simultaneously, the interaction was validated by GST Pull down experiment. Firstly, pET-30a-GhJAZ1 (the DNA sequence set forth in SEQ ID No. 39 was inserted into pET-30a (+) vector (YouBio, Cat. No.: VT1212) between NdeI and HindIII) and pGEX-4T-1-c-Myc vectors (the CDS sequence of c-Myc (NCBI accession number: NM_002467.6) was inserted into pGEX-4T-1 vector (YouBio, Cat. No.: VT1253) between BamHI and EcoRI) was constructed and transformed into Escherichia coli BL21, which was placed on ice for 30 min, followed by heat shock at 42° C. for 60 s, and then placed on ice for 2 min, and then LB medium was added for cultivation at 37° C. and 200 rpm for 1 h, which was plated onto LB plates containing corresponding antibiotics for cultivation at 37° C. After colonies grown out, monoclonal clones were picked and shaking for incubation and expanded until the medium began to turn slightly white, and then different concentrations of IPTG were added for induction and cultured overnight under different temperatures setting. Subsequently, centrifugation at 5,000 rpm, 4° C. was carried out for 10 min, with addition of an equal volume of PBS (supplemented with PMSF and DTT) for resuspending. […] The supernatant was transferred into a protein purification column, and washed and eluted following incubation, and then proteins were detected and collected dropwise using protein pre-staining solution. […]
T1 sequence (P01106 whole entry, the tested form may be a part): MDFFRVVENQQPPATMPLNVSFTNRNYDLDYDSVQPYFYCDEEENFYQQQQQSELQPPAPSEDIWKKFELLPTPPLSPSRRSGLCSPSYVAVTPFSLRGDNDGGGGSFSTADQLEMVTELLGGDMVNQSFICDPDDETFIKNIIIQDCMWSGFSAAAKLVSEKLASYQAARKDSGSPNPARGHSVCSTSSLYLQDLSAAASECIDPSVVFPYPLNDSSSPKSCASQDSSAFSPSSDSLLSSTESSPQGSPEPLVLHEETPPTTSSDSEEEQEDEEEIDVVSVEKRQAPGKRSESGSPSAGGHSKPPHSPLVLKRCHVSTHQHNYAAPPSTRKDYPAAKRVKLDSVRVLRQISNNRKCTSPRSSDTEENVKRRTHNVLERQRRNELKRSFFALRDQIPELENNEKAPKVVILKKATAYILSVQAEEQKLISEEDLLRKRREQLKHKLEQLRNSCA

For experiment [2], the system named is downstream genes of c-Myc in normal cell MCF10A. Kind of experiment: RT-PCR of c-Myc downstream genes, MCF10A. Type of experiment: cell-based, human. As to the method: Identification at the RNA level: RNA was extracted using RNA extraction kit (RNAprep Pure Polysaccharide Polyphenol Plant Total RNA Extraction Kit (DP441), manufacturer: TIANGEN BIOTECH (BEIJING) CO., LTD.), and then cDNA was obtained using two-step reverse transcription kit (a third-generation premix for two-step de-genomization and reverse transcription, Cat. No.: MR05201). cDNA as a template was added into a 96-well plate, with addition of SYBR®Green I chimeric dye (an antibody dye quantitative PCR premix, Cat. No.: MQ10101) and gene primers for three-step qPCR amplification. Finally, the relative gene expression was calculated based on the Ct value.
Wherein, the sequences of primers were as follows: […]

For experiment [3], the target named is T1, c-Myc. Kind of experiment: LUC experiment in tobacco leaves with c-Myc. It is filed as binding. The arrangement: with the full length of c-Myc and NMYC, respectively; expressed in transfected cells; host or cells: yeast Y2HGold. The text has this:
Using the method of LUC experiment, c-Myc (NCBI accession number: NM_002467.6) was subcloned to pCAMBIA NLuc vector (Chen, H., et al. “Firefly Luciferase Complementation Imaging Assay for Protein-Protein Interactions in Plants.” Plant Physiology 146.2(2008):368-376.) between the KpnI and SalI cleavage sites, and GhJAZ1 (SEQ ID No. 39) was subcloned to pCAMBIA-CLuc vector (Chen, H., et al. “Firefly Luciferase Complementation Imaging Assay for Protein-Protein Interactions in Plants.” Plant Physiology 146.2(2008):368-376.) between the KpnI and SalI cleavage sites. The constructed recombinant plasmids verified to be positive by sequencing were transformed into Agrobacterium GV3101 (pSoup-p19) (Shanghai Weidi biology technology co., Ltd, Cat. No.: AC1003), which were co-transfected into tobacco leaves. 2-3 days after injection, the infected leaves coated with the fluorescent substrate were placed in a dark chamber of the instrument for at least 6 min before taking images to quench fluorescence, followed by observation on the Nightowl-II LB983 instrument, using IndigoBasic software under the luciferase-5 min setting conditions. Cultivation was performed after co-infection. If there is interaction, LUC luciferase is expressed, and luminescence is detected after substrate application. As shown in F in FIG. 6, GhJAZ1 interacts with c-Myc.

B1: GhJAZ1: cotton JAZ1 protein, gene number Gh_A05G0260, sequence SEQ ID No. 4; prokaryotically expressed with His tag, about 30 KD (protein)
chain: MSSCSESTAMKPARSPEKPSFAQTCNLLSQYLKEKGSFGDLSLGMTCNVEANGTPVVPPPTMNLFPLNDKSDDVCGRNGGNPKNLTSMDLFPQQAGLASKDDSPNKLEPQTAPMTIFYGGQVIVFNDFPANKAKEIMLLASNSSSQSNNSFNPIPFTSSIARSPIESSIGVPPTSKPVHPAQRAVPGDLPIARRASLHRFLEKRKDRITAKAPYQINNSAAAPSLSGDNKSWLGLAAQSP
modifications: His tag
notes: prokaryotically expressed with His tag, about 30 KD
With B1, the “interaction with GhTPL” value in the experiment on GhTPL is “interacts”. In addition, in the experiment with MCF7 breast cancer cells, the “proportion of G2-M phase cells (MCF7)” value is reported as “increase” and the “proportion of S-phase cells (MCF7)” value is listed as “decrease”. In addition, the “interaction with c-Myc” value with c-Myc [1] is reported as “interacted”. For the same molecule, the “expression of Bcl2 and MCM5” value in experiment [2] is on record as “significantly decreased but at a minor extent”. For the same molecule, the “expression of P21C, CNB1, CCND1, and CCNE1” value in experiment [2] (at a minor extent) was “significantly increased”. Besides, the “interaction with c-Myc” value in the experiment with c-Myc [3] is reported as “interacts”.

The values above are taken from patent US20240279288A1, “APPLICATION OF PLANT JAZ PROTEINS AND DERIVED POLYPEPTIDES IN PREVENTION AND TREATMENT OF HUMAN AND ANIMAL TUMORS” (ANYANG INSTITUTE OF SINO-COTTON INDUSTRY INNOVATION, priority 2021, published 2024).
